Reference: paper PMC13233901

B1: wild type (WT) estrogen receptor [human (endogenous in and MCF7)] / progesterone receptor [human (endogenous in and MCF7)] (parent)
chain 1: MTMTLHTKASGMALLHQIQGNELEPLNRPQLKIPLERPLGEVYLDSSKPAVYNYPEGAAYEFNAAAAANAQVYGQTGLPYGPGSEAAAFGSNGLGGFPPLNSVSPSPLMLLHPPPQLSPFLQPHGQQVPYYLENEPSGYTVREAGPPAFYRPNSDNRRQGGRERLASTNDKGSMAMESAKETRYCAVCNDYASGYHYGVWSCEGCKAFFKRSIQGHNDYMCPATNQCTIDKNRRKSCQACRLRKCYEVGMMKGGIRKDRRGGRMLKHKRQRDDGEGRGEVGSAGDMRAANLWPSPLMIKRSKKNSLALSLTADQMVSALLDAEPPILYSEYDPTRPFSEASMMGLLTNLADRELVHMINWAKRVPGFVDLTLHDQVHLLECAWLEILMIGLVWRSMEHPGKLLFAPNLLLDRNQGKCVEGMVEIFDMLLATSSRFRMMNLQGEEFVCLKSIILLNSGVYTFLSSTLKSLEEKDHIHRVLDKITDTLIHLMAKAGLTLQQQHQRLAQLLLILSHIRHMSNKGMEHLYSMKCKNVVPLYDLLLEMLDAHRLHAPTSRGGASVEETDQSHLATAGSTSSHSLQKYYITGEAEGFPATV
chain 2: MTELKAKGPRAPHVAGGPPSPEVGSPLLCRPAAGPFPGSQTSDTLPEVSAIPISLDGLLFPRPCQGQDPSDEKTQDQQSLSDVEGAYSRAEATRGAGGSSSSPPEKDSGLLDSVLDTLLAPSGPGQSQPSPPACEVTSSWCLFGPELPEDPPAAPATQRVLSPLMSRSGCKVGDSSGTAAAHKVLPRGLSPARQLLLPASESPHWSGAPVKPSPQAAAVEVEEEDGSESEESAGPLLKGKPRALGGAAAGGGAAAVPPGAAAGGVALVPKEDSRFSAPRVALVEQDAPMAPGRSPLATTVMDFIHVPILPLNHALLAARTRQLLEDESYDGGAGAASAFAPPRSSPCASSTPVAVGDFPDCAYPPDAEPKDDAYPLYSDFQPPALKIKEEEEGAEASARSPRSYLVAGANPAAFPDFPLGPPPPLPPRATPSRPGEAAVTAAPASASVSSASSSGSTLECILYKAEGAPPQQGPFAPPPCKAPGASGCLLPRDGLPSTSASAAAAGAAPALYPALGLNGLPQLGYQAAVLKEGLPQVYPPYLNYLRPDSEASQSPQYSFESLPQKICLICGDEASGCHYGVLTCGSCKVFFKRAMEGQHNYLCAGRNDCIVDKIRRKNCPACRLRKCCQAGMVLGGRKFKKFNKVRVVRALDAVALPQPVGVPNESQALSQRFTFSPGQDIQLIPPLINLLMSIEPDVIYAGHDNTKPDTSSSLLTSLNQLGERQLLSVVKWSKSLPGFRNLHIDDQITLIQYSWMSLMVFGLGWRSYKHVSGQMLYFAPDLILNEQRMKESSFYSLCLTMWQIPQEFVKLQVSQEEFLCMKVLLLLNTIPLEGLRSQTQFEEMRSSYIRELIKAIGLRQKGVVSSSQRFYQLTKLLDNLHDLVKQLHLYCLNTFIQSRALSVEFPEMMSEVIAAQLPKILAGMVKPLLFHKK

Variants of: B1
Test: proximity ligation assay (PLA)
Details: with progesterone receptor [human (endogenous in T47D and MCF7)], read off a plot
[1] = MCF7 cells, basal (no added hormone), parent: 1.2
[2] = T47D cells, basal (no added hormone), parent: 6.4

Work on chain 1 MTMTLHTKASGMALLHQIQGNELEPLNRPQLKIPLERPLGEVYLDSSKPAVYNYPEGAAYEFNAAAAANAQVYGQTGLPYGPGSEAAAFGSNGLGGFPPLNSVSPSPLMLLHPPPQLSPFLQPHGQQVPYYLENEPSGYTVREAGPPAFYRPNSDNRRQGGRERLASTNDKGSMAMESAKETRYCAVCNDYASGYHYGVWSCEGCKAFFKRSIQGHNDYMCPATNQCTIDKNRRKSCQACRLRKCYEVGMMKGGIRKDRRGGRMLKHKRQRDDGEGRGEVGSAGDMRAANLWPSPLMIKRSKKNSLALSLTADQMVSALLDAEPPILYSEYDPTRPFSEASMMGLLTNLADRELVHMINWAKRVPGFVDLTLHDQVHLLECAWLEILMIGLVWRSMEHPGKLLFAPNLLLDRNQGKCVEGMVEIFDMLLATSSRFRMMNLQGEEFVCLKSIILLNSGVYTFLSSTLKSLEEKDHIHRVLDKITDTLIHLMAKAGLTLQQQHQRLAQLLLILSHIRHMSNKGMEHLYSMKCKNVVPLYGLLLEMLDAHRLHAPTSRGGASVEETDQSHLATAGSTSSHSLQKYYITGEAEGFPATV [chain 1 D538G] yielded a response [1] of 0.58 Dots/Cell and a response [2] of 1 Dots/Cell.

chain 1 MTMTLHTKASGMALLHQIQGNELEPLNRPQLKIPLERPLGEVYLDSSKPAVYNYPEGAAYEFNAAAAANAQVYGQTGLPYGPGSEAAAFGSNGLGGFPPLNSVSPSPLMLLHPPPQLSPFLQPHGQQVPYYLENEPSGYTVREAGPPAFYRPNSDNRRQGGRERLASTNDKGSMAMESAKETRYCAVCNDYASGYHYGVWSCEGCKAFFKRSIQGHNDYMCPATNQCTIDKNRRKSCQACRLRKCYEVGMMKGGIRKDRRGGRMLKHKRQRDDGEGRGEVGSAGDMRAANLWPSPLMIKRSKKNSLALSLTADQMVSALLDAEPPILYSEYDPTRPFSEASMMGLLTNLADRELVHMINWAKRVPGFVDLTLHDQVHLLECAWLEILMIGLVWRSMEHPGKLLFAPNLLLDRNQGKCVEGMVEIFDMLLATSSRFRMMNLQGEEFVCLKSIILLNSGVYTFLSSTLKSLEEKDHIHRVLDKITDTLIHLMAKAGLTLQQQHQRLAQLLLILSHIRHMSNKGMEHLYSMKCKNVVPLSDLLLEMLDAHRLHAPTSRGGASVEETDQSHLATAGSTSSHSLQKYYITGEAEGFPATV [chain 1 Y537S] was tested, and the response [1] was 0.68 Dots/Cell, the response (T47D cells, R5020 (10 nM) for 30 min, parent: 11) was 13 Dots/Cell and the response [2] was 1.6 Dots/Cell.
